Reference: the supplement of paper PMC9170038

Test system: MS2 coat protein
Experiment: apparent KD of MS2 coat protein; designed switch direction (-1 OFF switch, 1 ON switch): 1; higher = weaker reporter binding
Summary of the method: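 Stalled E. coli RNA polymerase transcribed designed RNA switches on Illumina chips, which were then titrated with SNAP-549-labelled MS2 coat protein, doubling from 0.7 or 1.5 nM to 3 µM. Steps lasted from 0.8–1.5 h at the lowest concentration to 10–20 min at the highest. The apparent KD is each design's median over clusters of curve-fitted normalised fluorescence.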

[1] = Eterna round: R95, input ligand: FMN 200 uM
[2] = Eterna round: R95, input ligand: microRNA oligo, concentration not stated
[3] = Eterna round: R95, input ligand: none
[4] = input ligand: microRNA oligo, concentration not stated

Sequence | apparent KD of MS2 coat protein [1] | apparent KD of MS2 coat protein [2] | apparent KD of MS2 coat protein [3] | apparent KD of MS2 coat protein (input ligand: FMN 200 uM) | apparent KD of MS2 coat protein [4] | apparent KD of MS2 coat protein (input ligand: none)
AGUCCAGCCAGAGCUGGACAAAAGCAUGUACAUGAGGAUCACCCAUGUUCAUGUACAAGCUUUUUGCAAGUCAAAAG [Mat - hsa-mir-208a - Mod of JL - 74] (puzzle: Sensor for hsa-mir-208a) | 0.503 µM | 0.0259 µM | 0.78 µM | – | – | –
AGUCCAGCCUAAGCUGGACAAAAGCAUGUACAUGAGGAUCACCCAUGUUCAUGUACAAGCUUUUUGCAAGUCAAAAU [Mat - hsa-mir-208a - Mod of JL - 79] (Eterna round: R96, puzzle: Sensor for hsa-mir-208a) | – | – | – | 0.837 µM | 0.0191 µM | 0.725 µM
AGUCCAGCCUAAGCUGGACAAAAGCAUGUACAUGAGGAUCACCCAUGUUCAUGUACAAGCUUUUUGCAAGUCAAAAU [Mat - hsa-mir-208a - Mod of JL - 79] (puzzle: Sensor for hsa-mir-208a) | 1.05 µM | 0.0193 µM | 1.05 µM | – | – | –
AGUCCAGCCUGAGCUGGACAAAAGCAUGUACAUGAGGAUCACCCAUGUCAUGUACAAGCUUUUUGCUCAUCUUAAAA [Mat - hsa-mir-208a - Mod of JL - D11] (Eterna round: R96, puzzle: Sensor for hsa-mir-208a) | – | – | – | 0.75 µM | 0.0118 µM | 0.886 µM
AGUCCAGCCUGAGCUGGACAAAAGCAUGUACAUGAGGAUCACCCAUGUCAUGUACAAGCUUUUUGCUCAUCUUAAAA [Mat - hsa-mir-208a - Mod of JL - D11] (puzzle: Sensor for hsa-mir-208a) | 0.624 µM | 0.0164 µM | 0.922 µM | – | – | –
AGUCCAGCCUGAGCUGGACAAAAGCAUGUACAUGAGGAUCACCCAUGUCAUGUACAAGCUUUUUGCUCGUCUAAAAU [Mat - hsa-mir-208a - Mod of JL - D6] (puzzle: Sensor for hsa-mir-208a) | 0.43 µM | 0.0163 µM | 0.675 µM | – | – | –
AGUCCAGCCUGAGCUGGACAAAAGCAUGUACAUGAGGAUCACCCAUGUUCAUGUACAAGCUUUUUGCUCGUCAAAAG [Mat - hsa-mir-208a - Mod of JL - 67] (puzzle: Sensor for hsa-mir-208a) | 0.18 µM | 0.0183 µM | 0.372 µM | – | – | –
AGUCCAGCCUGAGCUGGACAAAAGCAUGUACAUGAGGAUCACCCAUGUUCAUGUACAAGCUUUUUGCUCGUCUUACG [salish99_208a_r3_078] (puzzle: Sensor for hsa-mir-208a) | 0.673 µM | 0.0171 µM | 0.638 µM | – | – | –
AGUCCAGCCUGAGCUGGACAAAAGCAUGUACAUGAGGAUCACCCAUGUUCAUGUACAAGCUUUUUGCUCGUCUUAUG [salish99_208a_r3_051] (puzzle: Sensor for hsa-mir-208a) | 1.04 µM | 0.017 µM | 0.634 µM | – | – | –
AGUCCAGCCUGAGCUGGACAAAAGCAUGUACAUGAGGAUCACCCAUGUUCAUGUACAAGCUUUUUGCUCGUCUUGAA [salish99_208a_r3_095x] (Eterna round: R96, puzzle: Sensor for hsa-mir-208a) | – | – | – | 0.646 µM | 0.0161 µM | 0.572 µM
AGUCCAGCCUGAGCUGGACAAAAGCAUGUACAUGAGGAUCACCCAUGUUCAUGUACAAGCUUUUUGCUCGUCUUGAA [salish99_208a_r3_095x] (puzzle: Sensor for hsa-mir-208a) | 0.71 µM | 0.0135 µM | 0.817 µM | – | – | –
AGUCCAGCCUGAGCUGGACAAAGACAUGUACAUGAGGAUCACCCAUGUCAUGUACAAGUUUUUUGCUCGUCUUAUAA (puzzle: Sensor for hsa-mir-208a) | 0.0367 µM | 0.0125 µM | 0.0441 µM | – | – | –
AGUCCAGCCUGAGCUGGACAAAGGCAUGUACAUGAGGAUCACCCAUGUCAUGUACAAGCUUUUUGCUCGUCUUAAUA [Zipper 49 - 1] (Eterna round: R96, puzzle: Sensor for hsa-mir-208a) | – | – | – | 0.211 µM | 0.0126 µM | 0.178 µM
AGUCCAGCCUGAGCUGGACAAAGGCAUGUACAUGAGGAUCACCCAUGUCAUGUACAAGCUUUUUGCUCGUCUUAAUA [Zipper 49 - 1] (puzzle: Sensor for hsa-mir-208a) | 0.177 µM | 0.015 µM | 0.22 µM | – | – | –
AGUCCAGCCUGAGCUGGACAAAGGCAUGUACAUGAGGAUCACCCAUGUUCAUGUACAAGCUUUUUGCUCGUCUUAAA [Zipper 52 - 1] (puzzle: Sensor for hsa-mir-208a) | 0.14 µM | 0.0115 µM | 0.181 µM | – | – | –
AGUCCAGCGAAAGCUGGACAAAAGUAUGUACAUGAGGAUCACCCAUGUUCAUGUACAAGCUUUUUGCUCGUCUUAAA [JL mod - D95 - 10] (puzzle: Sensor for hsa-mir-208a) | 0.578 µM | 0.0203 µM | 0.62 µM | – | – | –

Sequence | apparent KD of MS2 coat protein [1] | apparent KD of MS2 coat protein [2] | apparent KD of MS2 coat protein [3] | apparent KD of MS2 coat protein (input ligand: FMN 200 uM) | apparent KD of MS2 coat protein [4] | apparent KD of MS2 coat protein (input ligand: none)
AGUCCUGAAAAGAAAAUAAAGAGAGAUGUACAUGAGGAUCACCCAUGUCAUGUACAAGUUCUAUGCUCGUCAUAUAA [Sensorship 23 - Jieux - Sensor for hsa-mir-208a] (puzzle: Sensor for hsa-mir-208a) | 0.913 µM | 0.113 µM | 1.43 µM | – | – | –
AGUCCUGAAAGGAAAAUUAUAAGUGAUGUACAUGAGGAUCACCCAUGUCAUGUACAAGUUCUAUGCUCGUCUUAUAA [Sensorship 25 - Jieux - Sensor for hsa-mir-208a] (puzzle: Sensor for hsa-mir-208a) | 0.222 µM | 0.0341 µM | 0.216 µM | – | – | –
AGUCCUGAAUAAAUUAAACAGAGACAUGUACAUGAGGAUCACCCAUGUCAUGUGCAAGUUUUAUGCUCGUCAUAUAA [Sensorship 18 - Jieux - Sensor for hsa-mir-208a] (puzzle: Sensor for hsa-mir-208a) | 0.013 µM | 0.00835 µM | 0.0128 µM | – | – | –
AGUCUACGGUGACGUAGACAGUGGUGCGUACAUGAGGAUCACCCAUGUCAUGUGAGAGUUACUUGUUCGUCUUGAGC [SENSOR #4] (puzzle: Sensor for hsa-mir-208a) | 0.0207 µM | 0.0217 µM | 0.0226 µM | – | – | –
AGUUGUGGAAAACUAUAGCAAAAGCAUGUACAUGAGGAUCACCCAUGUCAUGUACAAGCUUUUUGCUCGUCUUAUGG [ak 3 mod of one Eli's designs.] (puzzle: Sensor for hsa-mir-208a) | 0.025 µM | 0.0139 µM | 0.0503 µM | – | – | –
AUAAAACAUGAGGAUCACCCAUGUAAUCGCCAGACAGGAUAUAUAGUGGCAUUUGCAGGGAUAGAAGGGUCGUGGC [Lerainxege] (puzzle: Same State 1) | 0.0156 µM | 0.0351 µM | 0.037 µM | – | – | –
AUAAAACAUGAGGAUCACCCAUGUCAAAAGACAUGAGGAUAUGUGCAAAUAAAAUAAGAAACAGAAGGCAUGAAAA [salish99_ss1_r3_103] (puzzle: Same State 1) | 0.098 µM | 0.105 µM | 0.222 µM | – | – | –
AUAAAACAUGAGGAUCACCCAUGUCAACAAAGUCGAGGAUAUGGGCAAAUAAAAUAAGAACCAGAAGGCUAAUAAU [salish99_ss1_r3_052] (puzzle: Same State 1) | 0.246 µM | 0.378 µM | 0.375 µM | – | – | –
AUAAAACAUGAGGAUCACCCAUGUCAACAAAGUUGAGGAUAUGGGCAAAUAAAAUAAGAACCAGAAGGCGAAUAAU [salish99_ss1_r3_033] (puzzle: Same State 1) | 0.429 µM | 0.193 µM | 0.546 µM | – | – | –
AUAACACCGGCAGGAUAUGGGAAAGGAAGUGUACCAGAAGGGCCGGAACGGCGAUGGACAUGAGGAUCACCCAUGUCUUAGCCU [PowerStrip SSNG 1.24] (Eterna round: R96, puzzle: Same State NG 1) | – | – | – | 0.0137 µM | 0.0116 µM | 0.0173 µM
AUAAGGCAAGCUUUUUUCUCGUAGUGUAAACAUGAGGAUCACCCAUGUGCCCGCUCUGGAUCUUUGGAUCGCAGAAA [Lavegeaus] (puzzle: Sensor for hsa-mir-208a) | 0.0266 µM | 0.0182 µM | 0.0259 µM | – | – | –
AUAAGUCCGAUGCUCGUCUCUCCGUACAAACAUGAGGAUCACCCAUGUGAUCGGGAAGUAGCCCGAUCAGUAUGGCC [Erardius] (puzzle: Sensor for hsa-mir-208a) | 0.0455 µM | 0.0226 µM | 0.0483 µM | – | – | –
AUAAGUUCGAUGCUCGUCUCUCCGUACAAACAUGAGGAUCACCCAUGUGAUCGAGAAGUAGCCCGAUCAGUAUGGCC [Soainge] (puzzle: Sensor for hsa-mir-208a) | 0.0302 µM | 0.027 µM | 0.0353 µM | – | – | –
AUAAGUUCGAUGCUCGUCUCUCCGUACAAACAUGAGGAUCACCCAUGUGAUCGGGAAGUAGCCCAAUCAGUAUGGCC [Oranlaen] (puzzle: Sensor for hsa-mir-208a) | 0.0266 µM | 0.03 µM | 0.0313 µM | – | – | –
AUAAGUUCGAUGCUCGUCUCUCCGUACUAACAUGAGGAUCACCCAUGUGGUCGGGAAGUAGCCCGACCAGUAUGGCC [Vearebe] (puzzle: Sensor for hsa-mir-208a) | 0.0654 µM | 0.0533 µM | 0.0821 µM | – | – | –
